Test [1] concerns the target hIL-15Rβ-mγc on 32Dβ cells (human | mouse (endogenous in 32D)) (UniProt P14784).
The target in test [2] is mouse IL-15 receptor complex (mIL-15Rα-mIL-15Rβ-mγc) on CTLL-2 cells (mouse) (UniProt Q60819).
The target of test [3] is hIL-15Rα-hIL-15Rβ-hγc complex on TF-1β cells (human (endogenous in TF-1) | human) (UniProt Q13261).
In test [4] the target is hIL-15Rβ-mγc on 32Dβ cells (human | mouse (endogenous in 32D)) (UniProt P14784). The source holds these as a separate data set.
The target is the same in test [5]. This is another data set of the same source.
In test [6] the target is hIL-15Rα and hγc on TF-1 cells (human (endogenous in TF-1)) (UniProt Q13261). The test is described as follows: flow cytometry on cells. For orientation: Flow cytometry measures light scatter and fluorescence of single cells or particles in a stream.
In another test the target is recombinant human IL-15 (human, UniProt P40933 49-162). In words: ELISA. For orientation: An ELISA detects its analyte on a solid surface through an enzyme-linked reagent.
In test [7] the target is c264scTCR/hIL-15 fusion protein (human, UniProt P40933 49-162). The test is described as follows: ELISA.

Sequence of hIL-15Rβ-mγc on 32Dβ cells (human | mouse (endogenous in 32D)) (P14784 27-551, chain 1 of 2): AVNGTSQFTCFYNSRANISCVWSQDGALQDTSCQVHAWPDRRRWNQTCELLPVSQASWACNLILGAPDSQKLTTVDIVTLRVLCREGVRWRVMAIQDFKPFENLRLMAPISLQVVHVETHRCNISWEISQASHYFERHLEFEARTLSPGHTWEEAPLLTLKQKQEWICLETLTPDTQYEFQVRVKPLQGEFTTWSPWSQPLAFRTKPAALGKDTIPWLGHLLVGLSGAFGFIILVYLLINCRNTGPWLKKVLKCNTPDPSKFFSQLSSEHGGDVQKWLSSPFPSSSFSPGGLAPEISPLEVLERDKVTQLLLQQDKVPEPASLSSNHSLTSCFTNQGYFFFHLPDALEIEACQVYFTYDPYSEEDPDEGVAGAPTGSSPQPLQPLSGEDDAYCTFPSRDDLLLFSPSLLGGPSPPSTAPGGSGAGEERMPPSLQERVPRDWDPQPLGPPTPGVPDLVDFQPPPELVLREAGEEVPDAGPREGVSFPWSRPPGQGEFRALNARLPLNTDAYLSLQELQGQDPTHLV
Sequence of hIL-15Rβ-mγc on 32Dβ cells (human | mouse (endogenous in 32D)) (P34902 23-369, chain 2 of 2, further chain): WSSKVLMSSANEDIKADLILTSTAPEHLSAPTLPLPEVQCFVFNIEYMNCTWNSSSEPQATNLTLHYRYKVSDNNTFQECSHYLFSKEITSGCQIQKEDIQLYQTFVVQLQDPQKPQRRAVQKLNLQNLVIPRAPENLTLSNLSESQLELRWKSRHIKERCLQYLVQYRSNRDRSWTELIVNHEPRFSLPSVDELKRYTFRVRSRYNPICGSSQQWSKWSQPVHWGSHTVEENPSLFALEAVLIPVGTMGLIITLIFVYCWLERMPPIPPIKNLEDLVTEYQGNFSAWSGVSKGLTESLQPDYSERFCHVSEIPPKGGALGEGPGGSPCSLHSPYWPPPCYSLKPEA
Sequence of mouse IL-15 receptor complex (mIL-15Rα-mIL-15Rβ-mγc) on CTLL-2 cells (mouse) (Q60819 33-263, chain 1 of 3): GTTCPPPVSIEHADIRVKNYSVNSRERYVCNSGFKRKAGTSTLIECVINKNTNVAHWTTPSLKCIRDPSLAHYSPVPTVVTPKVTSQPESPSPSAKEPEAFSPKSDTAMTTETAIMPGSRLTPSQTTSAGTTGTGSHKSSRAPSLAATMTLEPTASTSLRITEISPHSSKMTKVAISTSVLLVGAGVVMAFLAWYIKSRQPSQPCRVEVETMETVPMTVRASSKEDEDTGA
Sequence of mouse IL-15 receptor complex (mIL-15Rα-mIL-15Rβ-mγc) on CTLL-2 cells (mouse) (P16297 27-539, chain 2 of 3, further chain): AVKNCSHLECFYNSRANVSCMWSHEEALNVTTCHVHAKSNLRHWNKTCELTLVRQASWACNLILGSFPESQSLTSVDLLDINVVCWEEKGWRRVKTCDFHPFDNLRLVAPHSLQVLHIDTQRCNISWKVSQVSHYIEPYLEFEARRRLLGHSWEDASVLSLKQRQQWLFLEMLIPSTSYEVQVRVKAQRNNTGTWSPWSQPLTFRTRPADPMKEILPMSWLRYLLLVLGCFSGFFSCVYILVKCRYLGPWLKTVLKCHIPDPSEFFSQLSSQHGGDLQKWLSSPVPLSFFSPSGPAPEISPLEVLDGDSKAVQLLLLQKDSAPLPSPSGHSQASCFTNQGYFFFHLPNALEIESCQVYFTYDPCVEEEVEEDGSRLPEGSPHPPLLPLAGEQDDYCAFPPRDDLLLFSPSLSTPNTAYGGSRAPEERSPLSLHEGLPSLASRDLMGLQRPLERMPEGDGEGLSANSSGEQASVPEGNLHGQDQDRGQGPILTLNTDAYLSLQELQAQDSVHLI
Sequence of mouse IL-15 receptor complex (mIL-15Rα-mIL-15Rβ-mγc) on CTLL-2 cells (mouse) (P34902 23-369, chain 3 of 3, further chain): as the sequence (P34902 23-369, chain 2 of 2, further chain) above

In test [1], “c264scTCR/hIL-15N72D fusion protein (ligand)” registered an EC50 of 32Dβ cell proliferation (WST-1, 48 h) of 79 pM. This molecule had an EC50 of CTLL-2 cell proliferation (WST-1, 48 h) in test [2] of 18.4 pM.

Broadly, the IC50 is the concentration needed to halve the response being measured. Low values mean inhibition by little substance, high ones a need for much substance. Regarding “recombinant human IL-15 N72D mutein (ligand)”, the EC50 of TF-1β cell proliferation (WST-1, 48 h) in test [3] worked out at 4.8 pM. This molecule displayed an EC50 of 32Dβ cell proliferation (WST-1, 48 h) in test [1] of 39.9 pM. Besides, in test [2], the EC50 of CTLL-2 cell proliferation (WST-1, 48 h) stood at 9.2 pM. In addition, in test [4], the EC50 on 32Dβ cell proliferation, rhIL-15N72D alone was 16.2 pM. In test [5], this molecule came in with an EC50 of the decrease in apoptosis of 32Dβ cells (Annexin V, 48 h) of 7.8 pM. In test [6], the IC50 turned out to be 0.0175 nM.

B1: c264scTCR/hIL-15RαSu fusion protein (domain or fragment, human, UniProt Q13261 31-95, looked up)
chain: ITCPPPMSVEHADIWVKSYSLYSRERYICNSGFKRKAGTSSLTECVLNKATNVAHWTTPSLKCIR
For B1, the binding result (with recombinant human IL-15; in test [7]) was “binds” in each case.

Source of the values: publication PMC2814526 (Journal of immunology (Baltimore, Md. : 1950), 2009).
